Test results reported in the supplement of paper PMC7125110.
± gives the standard error. For some of these results: Variants at the floor of the assay were thinned out.

B1: glmS ribozyme (parent)
chain: AUAAAAGCGCCAGAACUACAGAAAUGUAGUUGACGAGGAGGAGGUUUAUCGAAUUUUCGGCGGAUGCCUCCAAA

Columns and labels:
Conditions in all cases: with glucosamine-6-phosphate
[1] = variants of: B1; test: kcat; higher = faster cleavage; RNA array
How it was run: (§1)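 The measurements used barcoded ribozyme variants on sequenced MiSeq chips, transcribed in situ by E. coli RNA polymerase and tracked at 37 °C with a hybridised Cy3 probe. Glucosamine-6-phosphate, 40 μM to 10 mM in HEPES/KCl/Mg(OAc)2 buffer, was flowed in while tiles were imaged over ~14 h. Baseline-normalised signals, also normalised to non-cleaving reference variants, gave per-tile medians that were fit to one- or two-exponential decays for kobs. kcat and KM resulted from weighted Michaelis–Menten fits across concentrations.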

[2] = variants of: B1; test: KM; higher = weaker cofactor use; RNA array
How it was run: as §1

[3] = variants of: B1; test: self-cleavage kobs at 160 uM GlcN6P; higher = faster cleavage; RNA array
How it was run: as §1

[4] = variants of: B1; test: self-cleavage kobs at 640 uM GlcN6P; higher = faster cleavage; RNA array
How it was run: as §1

[5] = variants of: B1; test: self-cleavage kobs at 2500 uM GlcN6P; higher = faster cleavage; RNA array
How it was run: as §1

[6] = variants of: B1; test: self-cleavage kobs at 10000 uM GlcN6P; higher = faster cleavage; RNA array
How it was run: as §1

[7] = variants of: B1; test: self-cleavage kobs at 40 uM GlcN6P; higher = faster cleavage; RNA array
How it was run: as §1

## AUAAAAGCGCCGGAACUACAGAAAUGUAGUUGACGAGGAGGAGGUUUAUCGAAUUUUAGGCGGAUGCCUCCAAA [A12G C58A]
[1]
  kcat: 0.000476 ± 0.0001 s⁻¹
[2]
  KM: 1510 ± 610 µM
[3]
  self-cleavage kobs at 160 uM GlcN6P: 4.69e-05 ± 1.3e-05 s⁻¹
[4]
  self-cleavage kobs at 640 uM GlcN6P: 0.000154 ± 1.7e-05 s⁻¹
[5]
  self-cleavage kobs at 2500 uM GlcN6P: 0.000245 ± 3.3e-05 s⁻¹
[6]
  self-cleavage kobs at 10000 uM GlcN6P: 0.000523 ± 7.4e-05 s⁻¹

## AUAAAAGCGCCAGCACUACAGAAAUGUAGUUGACGAGGAGGAGGUUUAUCGAAUAUUCGGCGGAUGCCUCCAAA [A14C U55A]
[1]
  kcat: 0.00676 ± 0.0017 s⁻¹
[2]
  KM: 2080 ± 720 µM
[7]
  self-cleavage kobs at 40 uM GlcN6P: 0.000144 ± 1.6e-05 s⁻¹
[3]
  self-cleavage kobs at 160 uM GlcN6P: 0.000546 ± 8.1e-05 s⁻¹
[4]
  self-cleavage kobs at 640 uM GlcN6P: 0.00145 ± 0.00015 s⁻¹
[5]
  self-cleavage kobs at 2500 uM GlcN6P: 0.0031 ± 0.00043 s⁻¹
[6]
  self-cleavage kobs at 10000 uM GlcN6P: 0.00734 ± 0.00098 s⁻¹

## AUAAAAGCGCCAUAACUACAGAAAUGUAGUUGACGAGGAGGAGGUUUAUCGAAUUUUCGGCGGAAGCCUCCAAA [G13U U65A]
[1]
  kcat: 0.000112 ± 6.4e-06 s⁻¹
[2]
  KM: 1260 ± 270 µM
[5]
  self-cleavage kobs at 2500 uM GlcN6P: 7.82e-05 ± 1.7e-05 s⁻¹
[6]
  self-cleavage kobs at 10000 uM GlcN6P: 9.77e-05 ± 1.8e-05 s⁻¹

## AUAAAUGCGCCAGAACUACAGAAAUGUAGUUGACGAGGAGGAGGUUUAUCGAAUUUUCGGCGGAUGCCUCAAAA [A6U C71A]
[1]
  kcat: 5.43e-05 ± 1.1e-06 s⁻¹
[2]
  KM: 1730 ± 140 µM
[5]
  self-cleavage kobs at 2500 uM GlcN6P: 3.22e-05 ± 1.3e-05 s⁻¹
[6]
  self-cleavage kobs at 10000 uM GlcN6P: 4.63e-05 ± 1.1e-05 s⁻¹

## AUAAAAGCGCCAGAACUACAGAAAUGUAGCUGACGAGGAGGAGGUUUAUCGAAUUUUCGGCGGGUGCCUCCAAA [U30C A64G]
[1]
  kcat: 0.000351 ± 3.3e-05 s⁻¹
[2]
  KM: 1100 ± 200 µM
[3]
  self-cleavage kobs at 160 uM GlcN6P: 4.88e-05 ± 1.1e-05 s⁻¹
[4]
  self-cleavage kobs at 640 uM GlcN6P: 0.000122 ± 1.4e-05 s⁻¹
[5]
  self-cleavage kobs at 2500 uM GlcN6P: 0.000267 ± 3e-05 s⁻¹
[6]
  self-cleavage kobs at 10000 uM GlcN6P: 0.000293 ± 4.9e-05 s⁻¹

## AUAAAAGCGCCAGAACUACAGAAAUGUAGCUGACGAGGAGGAGGUUUAUCGAAUUUUAGGCGGAUGCCUCCAAA [U30C C58A]
[1]
  kcat: 2.21e-05 ± 6e-06 s⁻¹
[5]
  self-cleavage kobs at 2500 uM GlcN6P: 2.92e-05 ± 1.1e-05 s⁻¹

## AUAAAAGCGCCAGAACUACAGAAAUGUAGUUGACGAGGAGGAGAUGUAUCGAAUUUUCGGCGGAUGCCUCCAAA [G44A U46G]
[1]
  kcat: 0.000265 ± 5.2e-05 s⁻¹
[4]
  self-cleavage kobs at 640 uM GlcN6P: 0.000114 ± 2.6e-05 s⁻¹
[5]
  self-cleavage kobs at 2500 uM GlcN6P: 0.000213 ± 4.4e-05 s⁻¹
[6]
  self-cleavage kobs at 10000 uM GlcN6P: 0.000221 ± 4.7e-05 s⁻¹

## AUAAAAGCGCCAGAACUACAGAAAUGUAGUUGACGAGGAGGAGGUUUAUCGAAUUUUCGUCGGAUGACUCCAAA [G60U C67A]
[1]
  kcat: < 1e-05 s⁻¹
[7]
  self-cleavage kobs at 40 uM GlcN6P: < 1e-05 s⁻¹
[3]
  self-cleavage kobs at 160 uM GlcN6P: < 1e-05 s⁻¹
[5]
  self-cleavage kobs at 2500 uM GlcN6P: < 1e-05 s⁻¹

## AUAAAAGCGCCAGAACUACAGAAAUGUAGUUGACGAGGACGAGGUUUAUCGAAUAUUCGGCGGAUGCCUCCAAA [G40C U55A]
[1]
  kcat: 9.7e-05 ± 1.9e-05 s⁻¹
[3]
  self-cleavage kobs at 160 uM GlcN6P: 0.000138 ± 6.6e-05 s⁻¹
[4]
  self-cleavage kobs at 640 uM GlcN6P: 0.000125 ± 2.3e-05 s⁻¹
[5]
  self-cleavage kobs at 2500 uM GlcN6P: 7.26e-05 ± 1.4e-05 s⁻¹
[6]
  self-cleavage kobs at 10000 uM GlcN6P: 0.000133 ± 2.8e-05 s⁻¹

## AUAAAAGCGCCAGAACUACAGAAAUGUAGUUGACGAGGAGGAGGUUUAUCGAAAUUUCGGCGGAUUCCUCCAAA [U54A G66U]
[1]
  kcat: 0.00199 ± 0.00037 s⁻¹
[2]
  KM: 1460 ± 440 µM
[7]
  self-cleavage kobs at 40 uM GlcN6P: 8.58e-05 ± 1.9e-05 s⁻¹
[3]
  self-cleavage kobs at 160 uM GlcN6P: 0.000194 ± 3.3e-05 s⁻¹
[4]
  self-cleavage kobs at 640 uM GlcN6P: 0.000521 ± 8e-05 s⁻¹
[5]
  self-cleavage kobs at 2500 uM GlcN6P: 0.00141 ± 0.00024 s⁻¹
[6]
  self-cleavage kobs at 10000 uM GlcN6P: 0.00174 ± 0.00024 s⁻¹

## AUAAAAGCGCCAGAACUACAGAAAUGUAGUUGACGAGAAGGAGGAUUAUCGAAUUUUCGGCGGAUGCCUCCAAA [G38A U45A]
[1]
  kcat: < 1e-05 s⁻¹
[4]
  self-cleavage kobs at 640 uM GlcN6P: < 1e-05 s⁻¹

## AUAAAAGCGCCAGAACUACAGAAAUGUAGUCGACGAGGAGGAGGUUUAUCGAGUUUUCGGCGGAUGCCUUCAAA [U31C A53G C70U]
[1]
  kcat: 0.0038 ± 0.00074 s⁻¹
[2]
  KM: 620 ± 200 µM
[7]
  self-cleavage kobs at 40 uM GlcN6P: 0.000212 ± 4.6e-05 s⁻¹
[4]
  self-cleavage kobs at 640 uM GlcN6P: 0.00265 ± 0.00055 s⁻¹
[5]
  self-cleavage kobs at 2500 uM GlcN6P: 0.00272 ± 0.00079 s⁻¹
[6]
  self-cleavage kobs at 10000 uM GlcN6P: 0.00339 ± 0.00081 s⁻¹

## AUAAAAGCGCCAGAACUACAGAAAUGUAGCUGACGAGGAGGAGGUUUAUCGAAUUGUCGGCGGAUGCCUCCAAA [U30C U56G]
[1]
  kcat: 0.000308 ± 7.9e-05 s⁻¹
[4]
  self-cleavage kobs at 640 uM GlcN6P: 8.86e-05 ± 1.3e-05 s⁻¹
[5]
  self-cleavage kobs at 2500 uM GlcN6P: 0.000135 ± 1.8e-05 s⁻¹
[6]
  self-cleavage kobs at 10000 uM GlcN6P: 0.000296 ± 3.5e-05 s⁻¹

## AUAAAAGCGCCAGGACUACAGAAAUGUAGUUGACGAGGCGGAGGUUUAUCGAAUUUUCGGCGGAUGCCUCCAAA [A14G A39C]
[1]
  kcat: 0.0183 ± 0.0021 s⁻¹
[2]
  KM: 3470 ± 520 µM
[7]
  self-cleavage kobs at 40 uM GlcN6P: 0.000225 ± 3.6e-05 s⁻¹
[3]
  self-cleavage kobs at 160 uM GlcN6P: 0.000699 ± 0.00017 s⁻¹
[4]
  self-cleavage kobs at 640 uM GlcN6P: 0.00281 ± 0.00047 s⁻¹
[5]
  self-cleavage kobs at 2500 uM GlcN6P: 0.00921 ± 0.0025 s⁻¹
[6]
  self-cleavage kobs at 10000 uM GlcN6P: 0.0134 ± 0.0019 s⁻¹

## AUAAAAGCGCCAGAACUACAGAAAUGUAGUUGACGAGGAGGAGGUUUAUCGAAUUUGCUGCGGAGGCUUCCAAA [U57G G59U U65G C68U]
[1]
  kcat: 1.85e-05 ± 4.8e-06 s⁻¹

## AUAAAAGCGCCAGAACUACAGAAAUGUAGUUGACGAGGAGGAGGUUUAUGGAACUUUCGGCGGAUGCCUCCAAA [C50G U54C]
[1]
  kcat: 5.48e-05 ± 1.1e-05 s⁻¹
[3]
  self-cleavage kobs at 160 uM GlcN6P: 5.92e-05 ± 2.5e-05 s⁻¹
[5]
  self-cleavage kobs at 2500 uM GlcN6P: 5.87e-05 ± 1.8e-05 s⁻¹

## AUAAAAGCGCCAGAACUACAGAAAUGUAGUUGCCGAGGAGGAGGUUUAUCGAAUUUUCGGCGGAUGCCUGCAAA [A33C C70G]
[1]
  kcat: < 1e-05 s⁻¹
[3]
  self-cleavage kobs at 160 uM GlcN6P: < 1e-05 s⁻¹
[5]
  self-cleavage kobs at 2500 uM GlcN6P: < 1e-05 s⁻¹
[6]
  self-cleavage kobs at 10000 uM GlcN6P: < 1e-05 s⁻¹
